Assay [1] concerns the target T1, human NKG2D expressed on EL4 cells (Example 8) (human, UniProt P26718 1-216).
T1 construct: whole, on cells; also called extracellular NKG2D expressed on EL4 cells
T1 sequence (looked up): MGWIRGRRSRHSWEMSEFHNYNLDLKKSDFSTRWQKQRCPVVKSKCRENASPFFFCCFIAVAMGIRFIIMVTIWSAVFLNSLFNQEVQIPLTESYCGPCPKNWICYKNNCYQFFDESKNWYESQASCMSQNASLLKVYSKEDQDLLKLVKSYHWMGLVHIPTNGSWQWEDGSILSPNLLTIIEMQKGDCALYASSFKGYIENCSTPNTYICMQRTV
The experiment in a line: flow cytometry on EL4 cells expressing human NKG2D. As for the experimental part:
EL4 mouse lymphoma cell lines were engineered to express human NKG2D. […] The binding of the multi-specific binding proteins to NKG2D was detected using fluorophore-conjugated anti-human IgG secondary antibodies. Cells were analyzed by flow cytometry, and fold-over-background (FOB) was calculated using the mean fluorescence intensity (MFI) of NKG2D-expressing cells compared to parental EL4 cells.

Assay [2] deals with T2, CD33 expressed on human AML cells (MV4-11, Molm-13) (human, UniProt P20138 18-364).
T2 construct: In the assay the endogenous CD33 of the human AML cell lines was the target; also called cell surface CD33; tumor associated antigen CD33
The experiment in a line: flow cytometry on Molm-13 and MV4-11 human AML cells. The protocol:
Human AML cell line MV4-11 and Molm-13 expressing CD33 were used to assay the binding of TriNKETs to the tumor associated antigen CD33. TriNKETs and optionally the parental anti-CD33 monoclonal antibody were incubated with the cells, and the binding was detected using fluorophore-conjugated anti-human IgG secondary antibodies. Cells were analyzed by flow cytometry, and fold-over-background (FOB) was calculated using the mean fluorescence intensity (MFI) from the TriNKETs and the parental monoclonal anti-CD33 antibody normalized to secondary antibody controls. […] The TriNKETs show binding to cell surface CD33 on MV4-11 (FIGS. 36A, 36B, and 36D) and Molm-13 cells (FIG. 36C).

From patent publication US20210130471A1 (DRAGONFLY THERAPEUTICS, published 2021) come the findings set out here.

Numbering of substitutions follows the chain as printed.

T2 sequence (P20138 18-364 limits assumed): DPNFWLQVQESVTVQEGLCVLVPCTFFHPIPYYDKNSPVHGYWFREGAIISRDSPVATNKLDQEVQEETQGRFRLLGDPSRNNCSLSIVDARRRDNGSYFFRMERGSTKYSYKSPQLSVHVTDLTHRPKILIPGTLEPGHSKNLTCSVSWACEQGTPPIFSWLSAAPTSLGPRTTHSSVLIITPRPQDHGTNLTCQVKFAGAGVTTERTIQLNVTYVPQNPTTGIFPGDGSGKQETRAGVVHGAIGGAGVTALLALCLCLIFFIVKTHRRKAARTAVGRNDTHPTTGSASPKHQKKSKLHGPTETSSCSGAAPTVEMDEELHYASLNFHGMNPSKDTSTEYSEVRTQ

B1: CD33-TriNKET-C26 (ADI-28226 and a CD33-binding domain) (bispecific antibody, V domains shown)
VH 1: QVQLQQWGAGLLKPSETLSLTCAVYGGSFSGYYWSWIRQPPGKGLEWIGEIDHSGSTNYNPSLKSRVTISVDTSKNQFSLKLSSVTAADTAVYYCARARGPWSFDPWGQGTLVTVSS
VL 1: DIQMTQSPSTLSASVGDRVTITCRASQSISSWLAWYQQKPGKAPKLLIYKASSLESGVPSRFSGSGSGTEFTLTISSLQPDDFATYYCQQYGSFPITFGGGTKVEIK
VH 2: QVQLVQSGAEVKKPGASVKVSCKASGYTFTDYVVHWVRQAPGQGLEWMGYINPYNDGTKYNEKFKGRVTMTRDTSISTAYMELSRLRSDDTAVYYCARDYRYEVYGMDYWGQGTLVTVSS
VL 2: DIVLTQSPASLAVSPGQRATITCTASSSVNYIHWYQQKPGQPPKLLIYDTSKVASGVPARFSGSGSGTDFTLTINPVEANDTANYYCQQWRSYPLTFGQGTKLEIK
For B1, the binding result in assay [1] is listed as “binds”.

B2: CD33-TriNKET-A44 (ADI-27744 and a CD33-binding domain) (bispecific antibody, V domains shown)
VH 1: not shown
VL 1: DIQMTQSPSSVSASVGDRVTITCRASQGIDSWLAWYQQKPGKAPKLLIYAASSLQSGVPSRFSGSGSGTDFTLTISSLQPEDFATYYCQQGVSYPRTFGGGTKVEIK
VH 2: B1 VH 2
VL 2: B1 VL 2
For the molecule B2, in assay [1], the binding result is given as “binds”.

B3: parental anti-CD33 monoclonal antibody (antibody, V domains shown)
VH: B1 VH 2
VL: B1 VL 2
notes: Detected with anti-human IgG; also called parental monoclonal anti-CD33 antibody; parental anti-CD33 antibody
On to B3, for which, in assay [2], the binding result is “binds”.

B4: CD33-TriNKET-A49 (ADI-27749 and a CD33-binding domain) (bispecific antibody, V domains shown)
VH 1: EVQLVESGGGLVKPGGSLRLSCAASGFTFSSYSMNWVRQAPGKGLEWVSSISSSSSYIYYADSVKGRFTISRDNAKNSLYLQMNSLRAEDTAVYYCARGAPMGAAAGWFDPWGQGTLVTVSS
VL 1: B2 VL 1 with D30S, Y94F
VH 2: B1 VH 2
VL 2: B1 VL 2
B4: the binding result in assay [1] is recorded as “binds”.

B5: CD33-TriNKET-F47 (ADI-29447 and a CD33-binding domain) (bispecific antibody, V domains shown)
VH 1: B1 VH 1
VL 1: DIQMTQSPSTLSASVGDRVTITCRASQSISSWLAWYQQKPGKAPKLLIYKASSLESGVPSRFSGSGSGTEFTLTISSLQPDDFATYYCQQYDTFITFGGGTKVEIK
VH 2: B1 VH 2
VL 2: B1 VL 2
For the molecule B5, the binding result in assay [1] is reported as “binds”.
